According to PMC3264700 (Journal of Molecular and Cellular Cardiology, 2011):
Values joined by “and” are separate entries in the source; they are usually repeats but may differ in a detail not shown here. Identical values can stand only once. Like-named read-outs stand apart in the source and are kept apart here.

Legend:
[1] = biological target: the molecule itself; experiment: native gel or EMSA
[2] = biological target: the molecule itself; experiment: native gel or EMSA; remark: listed apart in the source

B1: adiponectin, endogenous in human coronary artery VSMC (hCASMC) (natural protein, human (endogenous in hCASMC), UniProt Q15848 19-244, looked up)
chain: ETTTQGPGVLLPLPKGACTGWMAGIPGHPGHNGAPGRDGRDGTPGEKGEKGDPGLIGPKGDIGETGVPGAEGPRGFPGIQGRKGEPGEGAYVYRSAFSVGLETYVTIPNMPIRFTKIFYNQQNHYDGSTGKFHCNIPGLYYFAYHITVYMKDVKVSLFKKDKAMLFTYDQYQENNVDQASGSVLLHLEVGDQVWLQVYGEGERNGLYADNDNDSTFTGFLLYHDTN
stoichiometry N [1]: 2 and 3 and 6

B2: adiponectin secreted by wild type mouse aortic VSMC (natural protein, UniProt Q60994 18-247, looked up)
chain: EDDVTTTEELAPALVPPPKGTCAGWMAGIPGHPGHNGTPGRDGRDGTPGEKGEKGDAGLLGPKGETGDVGMTGAEGPRGFPGTPGRKGEPGEAAYVYRSAFSVGLETRVTVPNVPIRFTKIFYNQQNHYDGSTGKFYCNIPGLYYFSYHITVYMKDVKVSLFKKDKAVLFTYDQYQEKNVDQASGSVLLHLEVGDQVWLQVYGDGDHNGLYADNVNDSTFTGFLLYHDTN
stoichiometry N [2]: 3
